To fix the notation:
T1: CD112R-hIgG4 fusion protein (human, UniProt Q6DKI7 41-171, limits assumed)
T1 construct: also called human CD112R-hIgG4; not shown: human IgG4 portion (hIgG4)
T1 sequence (looked up): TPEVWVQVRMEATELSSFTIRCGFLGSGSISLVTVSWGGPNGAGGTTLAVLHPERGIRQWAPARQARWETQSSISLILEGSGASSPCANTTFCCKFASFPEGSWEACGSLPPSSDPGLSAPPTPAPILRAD

B1: Antibody 46 (antibody, V domains shown)
VH: EVQLVESGGGLVQPGRSLRLSCTASGFTFGDYAMSWFRQAPGKGLEWVGFIGSKAYGGTTEYTASVKGRFTISRDGSKSIAYLQMNSLKTEDTAVYYCARGPRRYTYGMDVWGQGTTVTVSS
VL: DIQMTQSPSSLSASVGDRVTITCRASQSISSYLNWYQQKPGKAPKLLIYAASSLQSGVPSRFSGSGSGTDFTLTISSLQPEDFATYYCQQSSTPLTFGGGTKVEIK
notes: in the mouse tumor studies it was used as mouse IgG2a; also called antibody clone number 46; clone 46
B2: Antibody 32 (antibody, V domains shown)
VH: QVQLVQSGAEVKKPGSSVKVSCKASGGTFSSYAISWVRQAPGQGLEWMGGIIPISGTANYAQKFQGRVTITADESTSTAYMELSSLRSEDTAVYYCARDTGRGYTRHFWFDPWGQGTLVTVSS
VL: B1 VL with S92D, T93I, P94L, L95Y
notes: Purified as IgG; compared with an IgG1 isotype control and detected with anti-human IgG Fc; also called antibody clone number 32; parent clone 32
B3: Antibody 58 (antibody, V domains shown)
VH: B1 VH with A55F, T59E
VL: B1 VL
notes: Purified as IgG; compared with an IgG1 isotype control and detected with anti-human IgG Fc; also called antibody clone number 58; clone 58
B4: Antibody 34 (antibody, V domains shown)
VH: B2 VH with Y32A, I52F, T57H
VL: B1 VL with S92D, T93I, P94L, L95Y
notes: Purified as IgG; compared with an IgG1 isotype control and detected with anti-human IgG Fc; also called antibody clone number 34; clone 34
B5: Antibody 36 (antibody, V domains shown)
VH: B2 VH with S30A, S31T, I52F, I54L
VL: B1 VL with S92D, T93I, P94L, L95Y
notes: Purified as IgG; compared with an IgG1 isotype control and detected with anti-human IgG Fc; also called antibody clone number 36; clone 36
B6: Antibody 33 (antibody, V domains shown)
VH: B2 VH with S30G, S31N, S55P, T57I
VL: B1 VL with S92D, T93I, P94L, L95Y
notes: Purified as IgG; compared with an IgG1 isotype control and detected with anti-human IgG Fc; also called antibody clone number 33; clone 33
B7: Antibody 35 (antibody, V domains shown)
VH: B2 VH with Y32A, G50N, S55V, T57I
VL: B1 VL with S92D, T93I, P94L, L95Y
notes: Purified as IgG; compared with an IgG1 isotype control and detected with anti-human IgG Fc; also called antibody clone number 35; clone 35

Numbering of substitutions follows the chain as printed.

The target in the first test is T1, CD112R-hIgG4 fusion protein. In words: blocking ELISA: coated CD112R-hIgG4, antibody, then biotinylated CD112 Fc. The procedure: The ability of anti-CD112R antibodies to block human CD112R was also evaluated by ELISA. Briefly, 96 well Nunc Maxisorp plates were coated with 1 μg/mL of a CD112R-hIgG4 fusion protein in PBS overnight at 4° C. […] After blocking, plates were washed 6× with PBST. Next, 100 μl of anti-CD112R antibodies in PBS+1% BSA was added at a final starting concentration of 10 μg/mL, with 4-fold serial dilutions. Plates were incubated at room temperature for 1.5 hours. Next plates were washed 6× with PBST and then incubated with 1 μg/ml CD112 Fc protein (R&D Systems, Cat #9317-N2-050) that was biotinylated with a sulfo-NHS biotinylation kit (Thermo Fisher, Cat #21925) in 100 μl of PBS+1% BSA for 1 hour at room temperature. Plates were then washed 6× with PBST and subsequently incubated with streptavidin-HRP (Biolegend, Cat #405210) diluted in PBS+1% BSA according to the manufacturer recommendation for 1 hour at room temperature. Following this incubation, plates were then washed 6× with PBST and developed with TMB substrate (Life Technologies, Cat #002023). The reaction was stopped with an equal volume of stop solution (Life Technologies, Cat #SS04). Absorbance at 450 nm (O.D. 450) was measured on a SpectraMax plate reader.
Results are depicted in FIG. 2B and Table 2. […] Percent inhibition was calculated as [100−((test sample O.D. 450/Max 0.D. 450)*100%)] Max O.D. 450 was defined as absorbance at 450 nm in the absence of antibody.
In general terms: An ELISA detects its analyte on a solid surface through an enzyme-linked reagent.
With B1, the “CD112 blocking max inhibition ELISA (%)” value came to 97.6%.
Consider B2, for which the “CD112 blocking max inhibition ELISA (%)” value was 75.1%.
The same measure, in the same setting: with B3 the figure was 97.3%; with B4, 80%.
B5: the “CD112 blocking max inhibition ELISA (%)” value is 86.2%.
Take B6: the “CD112 blocking max inhibition ELISA (%)” value is 78.8%.
Still for that read-out and setting: with B7 the figure was 81.7%.

The next test has as its target T2, mouse CD112R overexpressed on 293T cells (mouse).
T2 construct: whole, on cells; also called 293T.mCD112R; 293T-mouse CD112R
Nature of the test: flow cytometry, 293T cells overexpressing mouse CD112R. As for the experimental part: The ability of anti-CD112R antibodies to bind to mouse CD112R was evaluated on cells overexpressing mouse CD112R. 0.8×10⁵ 293T cells (ATCC CRL-3216) that were engineered to overexpress mouse CD112R (293T.mCD112R) were added to each well of a 96-well V bottom plate and stained with either anti-CD112R antibodies or an IgG1 isotype control at a starting concentration of 10 μg/mL, with 3-fold serial dilutions for 30 minutes at 4° C. Cells were washed twice with PBS+2% FCS and resuspended with Alexa Fluor® 647 anti-human IgG Fc antibody (Biolegend, Cat #409320) diluted 1:100 in PBS+2% FCS and incubated at 4° C. for 20 minutes. Cells were subsequently washed twice and resuspended in PBS+2% FCS. Cellular data was acquired using a LSRFortessa X-20 (BD Biosciences) and analyzed with FlowJo software (Tree Star).
Results are depicted in FIG. 17 and Table 11. Quantitation of antibody binding to 293T.mCD112R cells was assessed by the geometric mean fluorescent intensity (gMFI) of the Alexa Fluor® 647 signal.
Background: Flow cytometry measures light scatter and fluorescence of single cells or particles in a stream.
Turning to B1, the “gMFI (fold increase over isotype)” value is 74.8 fold increase over isotype.
With B2, the “gMFI (fold increase over isotype)” value is 14.9 fold increase over isotype.
Same read-out and setting: with B3 the figure was 79.4 fold increase over isotype.
Same read-out and setting: the figure for B4 is 72.2 fold increase over isotype; for B5 it is 76.3 fold increase over isotype; for B6 it is 73.3 fold increase over isotype.
Same read-out and setting: the figure for B7 is 55.6 fold increase over isotype.
